In patent CN114106174A:

Biological target: OX40 on OX40-overexpressing cells (OX40过表达细胞表面OX40) (UniProt P43489)
Assay: flow cytometry, positive control at 1 microgram/ml on OX40-overexpressing cells, goat anti-mouse IgG-PE

UniProt P43489, sequence (P43489 29-277 limits assumed): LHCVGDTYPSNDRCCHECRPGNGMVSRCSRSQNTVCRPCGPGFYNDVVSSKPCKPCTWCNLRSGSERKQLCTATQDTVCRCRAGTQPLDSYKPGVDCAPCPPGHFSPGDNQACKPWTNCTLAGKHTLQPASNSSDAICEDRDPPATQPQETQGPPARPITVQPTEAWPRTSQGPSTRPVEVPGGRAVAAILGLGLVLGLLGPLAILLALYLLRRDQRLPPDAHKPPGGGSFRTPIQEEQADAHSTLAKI

- Y586通道PE荧光值: 210000
Substance: 抗-OX40抗体 (clone ACT35, Biolegend) (antibody)
